Like-named read-outs stand apart in the source and are kept apart here. Blank lines part the entries; values can stand above or below the binder they belong to.
Columns and labels:
[1] = target: T1, 4-1BB-Fc (human, UniProt Q07011 24-186); test: ELISA, coated receptor-Fc
T1 construct: extracellular domain; hinge included for covalent assembly; also called 4-1BB receptor-Fc fusion protein; not shown: human Fc gamma 1 region including the hinge region
Experimental: (§1) Receptor binding of the single-chain Duokines was analyzed by ELISA using fusion proteins of the extracellular region of CD40, CD27, 4-1BB and OX40, respectively, with the human Fcγ1 region including the hinge region for covalent assembly (CD40-Fc, CD27-Fc, 4-1BB-Fc, OX40-Fc). Receptor-Fc fusion proteins (200 ng/well) were coated overnight at 4° C. and remaining binding sites were blocked with PBS, 2% skimmed milk powder (2% MPBS). […] The interactions between scDuokine and receptor were dose-dependent with EC₅₀ values in the low nanomolar ranges (FIG. 11 AB, Tab. 2).

[2] = target: T2, CD27-Fc (human, UniProt P26842 20-191); test: ELISA, coated receptor-Fc
T2 construct: extracellular domain; hinge included for covalent assembly; also called CD27 receptor-Fc fusion protein; not shown: human Fc gamma 1 region including the hinge region
T2 sequence (looked up): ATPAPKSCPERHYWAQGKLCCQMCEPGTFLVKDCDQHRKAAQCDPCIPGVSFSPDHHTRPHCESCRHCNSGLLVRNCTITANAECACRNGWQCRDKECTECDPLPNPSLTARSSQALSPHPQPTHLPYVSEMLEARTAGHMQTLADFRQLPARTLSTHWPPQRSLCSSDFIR
Experimental: as §1

[3] = target: T3, 4-1BB receptor on cells (human, UniProt Q07011 24-255); test: cell-based or functional assay
[4] = target: T4, CD40-Fc (human, UniProt P25942 21-193); test: ELISA, coated receptor-Fc
T4 construct: extracellular domain; hinge included for covalent assembly; also called CD40 receptor-Fc fusion protein; not shown: human Fc gamma 1 region including the hinge region

[5] = target: T5, OX40-Fc (human, UniProt P43489 29-214); test: ELISA, coated receptor-Fc
T5 construct: extracellular domain; hinge included for covalent assembly; also called OX40 receptor-Fc fusion protein; not shown: human Fc gamma 1 region including the hinge region
T5 sequence (looked up): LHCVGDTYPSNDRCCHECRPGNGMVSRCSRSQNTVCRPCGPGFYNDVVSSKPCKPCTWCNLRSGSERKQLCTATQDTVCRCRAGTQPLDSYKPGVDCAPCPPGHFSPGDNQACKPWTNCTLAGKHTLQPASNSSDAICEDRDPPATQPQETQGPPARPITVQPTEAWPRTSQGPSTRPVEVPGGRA

[6] = target: T3, 4-1BB receptor on cells; test: cell-based or functional assay; remark: listed apart in the source
[7] = target: T1, 4-1BB-Fc; test: ELISA, coated receptor-Fc; remark: listed apart in the source
Experimental: (§2) Receptor binding of the Duokines was analyzed by ELISA using fusion proteins of the extracellular region of CD40, CD27, 4-1BB and OX40, respectively, with the human Fcγ1 region including the hinge region for covalent assembly (CD40-Fc, CD27-Fc, 4-1BB-Fc, OX40-Fc). Receptor-Fc fusion proteins (200 ng/well) were coated overnight at 4° C. and remaining binding sites were blocked with PBS, 2% skimmed milk powder (2% MPBS).

[8] = target: T2, CD27-Fc; test: ELISA, coated receptor-Fc; remark: listed apart in the source
Experimental: as §2

[9] = target: T4, CD40-Fc; test: ELISA, coated receptor-Fc; remark: listed apart in the source
Experimental: as §1

[10] = target: T6, CD40 receptor on cells (human, UniProt P25942 21-277); test: cell-based or functional assay
[11] = target: T2, CD27-Fc; test: ELISA, coated receptor-Fc; remark: listed apart in the source
[12] = target: T6, CD40 receptor on cells; test: cell-based or functional assay; remark: listed apart in the source
[13] = target: T4, CD40-Fc; test: ELISA, coated receptor-Fc; remark: listed apart in the source
Experimental: as §2

[14] = target: T7, OX40 receptor on cells (human, UniProt P43489 29-277); test: cell-based or functional assay
T7 sequence (looked up): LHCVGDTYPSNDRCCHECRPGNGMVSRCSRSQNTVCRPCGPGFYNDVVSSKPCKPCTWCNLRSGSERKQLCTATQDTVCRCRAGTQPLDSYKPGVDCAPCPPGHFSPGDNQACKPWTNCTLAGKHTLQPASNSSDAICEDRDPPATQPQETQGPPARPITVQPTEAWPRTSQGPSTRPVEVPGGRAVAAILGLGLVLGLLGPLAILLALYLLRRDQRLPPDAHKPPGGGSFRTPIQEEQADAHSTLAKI

[15] = target: T5, OX40-Fc; test: ELISA, coated receptor-Fc; remark: listed apart in the source
Experimental: as §2

T3 sequence (Q07011 24-255): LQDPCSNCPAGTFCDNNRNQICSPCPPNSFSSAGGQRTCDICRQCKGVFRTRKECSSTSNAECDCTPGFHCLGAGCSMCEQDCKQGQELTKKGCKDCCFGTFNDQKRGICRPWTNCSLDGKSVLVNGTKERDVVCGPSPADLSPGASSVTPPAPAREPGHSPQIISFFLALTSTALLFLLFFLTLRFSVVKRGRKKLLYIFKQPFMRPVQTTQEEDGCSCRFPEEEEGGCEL
T4 sequence (P25942 21-193 limits assumed): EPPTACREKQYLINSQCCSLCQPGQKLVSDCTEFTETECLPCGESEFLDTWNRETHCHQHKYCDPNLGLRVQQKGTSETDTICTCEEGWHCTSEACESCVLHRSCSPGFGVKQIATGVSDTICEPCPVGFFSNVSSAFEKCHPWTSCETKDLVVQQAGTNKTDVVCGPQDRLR
T6 sequence (P25942 21-277): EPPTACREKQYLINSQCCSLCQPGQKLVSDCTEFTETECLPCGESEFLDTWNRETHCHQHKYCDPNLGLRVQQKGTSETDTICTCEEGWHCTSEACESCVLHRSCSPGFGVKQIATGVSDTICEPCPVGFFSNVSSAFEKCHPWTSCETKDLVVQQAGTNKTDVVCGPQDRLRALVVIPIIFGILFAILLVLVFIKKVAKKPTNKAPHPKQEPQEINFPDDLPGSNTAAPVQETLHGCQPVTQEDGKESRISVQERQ

- EC50 [1]: 4.57 nM
- EC50 [2]: 9.23 nM
- Receptor activation (EC50, nM) [3]: 1.5 nM
- binding result [4]: no binding (tested: 100 nM (FIG. 10))
- binding result [5]: no binding (tested: 100 nM (FIG. 10))
B1: scCD27L-sc4-1BBL (ligand)
chain: SLGWDVAELQLNHTGPQQDPRLYWQGGPALGRSFLHGPELDKGQLRIHRDGIYMVHIQVTLAICSSTTASRHHPTTLAVGICSPASRSISLLRLSFHQGCTIASQRLTPLARGDTLCTNLTGTLLPSRNTDETFFGVQWVRPGGGSGGGSLGWDVAELQLNHTGPQQDPRLYWQGGPALGRSFLHGPELDKGQLRIHRDGIYMVHIQVTLAICSSTTASRHHPTTLAVGICSPASRSISLLRLSFHQGCTIASQRLTPLARGDTLCTNLTGTLLPSRNTDETFFGVQWVRPGGGSGGGSLGWDVAELQLNHTGPQQDPRLYWQGGPALGRSFLHGPELDKGQLRIHRDGIYMVHIQVTLAICSSTTASRHHPTTLAVGICSPASRSISLLRLSFHQGCTIASQRLTPLARGDTLCTNLTGTLLPSRNTDETFFGVQWVRPGGGGSGGGTGGGGSREGPELSPDDPAGLLDLRQGMFAQLVAQNVLLIDGPLSWYSDPGLAGVSLTGGLSYKEDTKELVVAKAGVYYVFFQLELRRVVAGEGSGSVSLALHLQPLRSAAGAAALALTVDLPPASSEARNSAFGFQGRLLHLSAGQRLGVHLHTEARARHAWQLTQGATVLGLFRVTPEIPAGLPSPRSEGGGGSGGGGSGGGGSREGPELSPDDPAGLLDLRQGMFAQLVAQNVLLIDGPLSWYSDPGLAGVSLTGGLSYKEDTKELVVAKAGVYYVFFQLELRRVVAGEGSGSVSLALHLQPLRSAAGAAALALTVDLPPASSEARNSAFGFQGRLLHLSAGQRLGVHLHTEARARHAWQLTQGATVLGLFRVTPEIPAGLPSPRSEGGGGSGGGGSGGGGSREGPELSPDDPAGLLDLRQGMFAQLVAQNVLLIDGPLSWYSDPGLAGVSLTGGLSYKEDTKELVVAKAGVYYVFFQLELRRVVAGEGSGSVSLALHLQPLRSAAGAAALALTVDLPPASSEARNSAFGFQGRLLHLSAGQRLGVHLHTEARARHAWQLTQGATVLGLFRVTPEIPAGLPSPRSE
notes: scDuokine from HEK293; VH leader left out; also called single-chain Duokine scCD27L-sc4-1BBL; not shown: N-terminal FLAG tag

- Receptor activation (EC50, nM) [6]: 1.44 nM
- EC50 [7]: 1.41 nM
- EC50 [8]: 6.34 nM
- binding result [4]: no binding (tested: 100 nM (FIG. 4))
- binding result [5]: no binding (tested: 100 nM (FIG. 4))
B2: CD27L-4-1BBL (ligand)
chain: SLGWDVAELQLNHTGPQQDPRLYWQGGPALGRSFLHGPELDKGQLRIHRDGIYMVHIQVTLAICSSTTASRHHPTTLAVGICSPASRSISLLRLSFHQGCTIASQRLTPLARGDTLCTNLTGTLLPSRNTDETFFGVQWVRPGGGGSGGGGSGGGGSGGGGSREGPELSPDDPAGLLDLRQGMFAQLVAQNVLLIDGPLSWYSDPGLAGVSLTGGLSYKEDTKELVVAKAGVYYVFFQLELRRVVAGEGSGSVSLALHLQPLRSAAGAAALALTVDLPPASSEARNSAFGFQGRLLHLSAGQRLGVHLHTEARARHAWQLTQGATVLGLFRVTPEIPAGLPSPRSE
notes: Duokine from HEK293, FLAG-purified; VH leader left out; homotrimer by SEC; also called Duokine CD27L-4-1BBL; not shown: N-terminal FLAG tag

- EC50 [1]: 3.17 nM
- EC50 [9]: 7.02 nM
- Receptor activation (EC50, nM) [3]: 0.26 nM
- Receptor activation (EC50, nM) [10]: 5.23 nM
- binding result [5]: no binding (tested: 100 nM (FIG. 10))
- binding result [11]: no binding (tested: 100 nM (FIG. 10))
B3: scCD40L-sc4-1BBL (ligand)
chain: GDQNPQIAAHVISEASSKTTSVLQWAEKGYYTMSNNLVTLENGKQLTVKRQGLYYIYAQVTFCSNREASSQAPFIASLCLKSPGRFERILLRAANTHSSAKPCGQQSIHLGGVFELQPGASVFVNVTDPSQVSHGTGFTSFGLLKLGGGSGGGGDQNPQIAAHVISEASSKTTSVLQWAEKGYYTMSNNLVTLENGKQLTVKRQGLYYIYAQVTFCSNREASSQAPFIASLCLKSPGRFERILLRAANTHSSAKPCGQQSIHLGGVFELQPGASVFVNVTDPSQVSHGTGFTSFGLLKLGGGSGGGGDQNPQIAAHVISEASSKTTSVLQWAEKGYYTMSNNLVTLENGKQLTVKRQGLYYIYAQVTFCSNREASSQAPFIASLCLKSPGRFERILLRAANTHSSAKPCGQQSIHLGGVFELQPGASVFVNVTDPSQVSHGTGFTSFGLLKLGGGGSGGGTGGGGSREGPELSPDDPAGLLDLRQGMFAQLVAQNVLLIDGPLSWYSDPGLAGVSLTGGLSYKEDTKELVVAKAGVYYVFFQLELRRVVAGEGSGSVSLALHLQPLRSAAGAAALALTVDLPPASSEARNSAFGFQGRLLHLSAGQRLGVHLHTEARARHAWQLTQGATVLGLFRVTPEIPAGLPSPRSEGGGGSGGGGSGGGGSREGPELSPDDPAGLLDLRQGMFAQLVAQNVLLIDGPLSWYSDPGLAGVSLTGGLSYKEDTKELVVAKAGVYYVFFQLELRRVVAGEGSGSVSLALHLQPLRSAAGAAALALTVDLPPASSEARNSAFGFQGRLLHLSAGQRLGVHLHTEARARHAWQLTQGATVLGLFRVTPEIPAGLPSPRSEGGGGSGGGGSGGGGSREGPELSPDDPAGLLDLRQGMFAQLVAQNVLLIDGPLSWYSDPGLAGVSLTGGLSYKEDTKELVVAKAGVYYVFFQLELRRVVAGEGSGSVSLALHLQPLRSAAGAAALALTVDLPPASSEARNSAFGFQGRLLHLSAGQRLGVHLHTEARARHAWQLTQGATVLGLFRVTPEIPAGLPSPRSE
notes: scDuokine from HEK293; VH leader left out; also called single-chain Duokine scCD40L-sc4-1BBL; not shown: N-terminal FLAG tag

- Receptor activation (EC50, nM) [6]: 0.45 nM
- Receptor activation (EC50, nM) [12]: 3.01 nM
- EC50 [7]: 2.11 nM
- EC50 [13]: 10.1 nM
- binding result [5]: no binding (tested: 100 nM (FIG. 4))
- binding result [11]: no binding (tested: 100 nM (FIG. 4))
B4: CD40L-4-1BBL (ligand)
chain: GDQNPQIAAHVISEASSKTTSVLQWAEKGYYTMSNNLVTLENGKQLTVKRQGLYYIYAQVTFCSNREASSQAPFIASLCLKSPGRFERILLRAANTHSSAKPCGQQSIHLGGVFELQPGASVFVNVTDPSQVSHGTGFTSFGLLKLGGGGSGGGGSGGGGSGGGGSREGPELSPDDPAGLLDLRQGMFAQLVAQNVLLIDGPLSWYSDPGLAGVSLTGGLSYKEDTKELVVAKAGVYYVFFQLELRRVVAGEGSGSVSLALHLQPLRSAAGAAALALTVDLPPASSEARNSAFGFQGRLLHLSAGQRLGVHLHTEARARHAWQLTQGATVLGLFRVTPEIPAGLPSPRSE
notes: Duokine from HEK293, FLAG-purified; VH leader left out; homotrimer by SEC; also called Duokine CD40L-4-1BBL; not shown: N-terminal FLAG tag

- Receptor activation (EC50, nM) [14]: 0.85 nM
- Receptor activation (EC50, nM) [6]: 2.75 nM
- EC50 [7]: 1.26 nM
- EC50 [15]: 7.17 nM
- binding result [4]: no binding (tested: 100 nM (FIG. 4))
- binding result [11]: no binding (tested: 100 nM (FIG. 4))
B5: OX40L-4-1BBL (ligand)
chain: QVSHRYPRIQSIKVQFTEYKKEKGFILTSQKEDEIMKVQNNSVIINCDGFYLISLKGYFSQEVNISLHYQKDEEPLFQLKKVRSVNSLMVASLTYKDKVYLNVTTDNTSLDDFHVNGGELILIHQNPGEFCVLGGGGSGGGGSGGGGSGGGGSREGPELSPDDPAGLLDLRQGMFAQLVAQNVLLIDGPLSWYSDPGLAGVSLTGGLSYKEDTKELVVAKAGVYYVFFQLELRRVVAGEGSGSVSLALHLQPLRSAAGAAALALTVDLPPASSEARNSAFGFQGRLLHLSAGQRLGVHLHTEARARHAWQLTQGATVLGLFRVTPEIPAGLPSPRSE
notes: Duokine from HEK293, FLAG-purified; VH leader left out; homotrimer by SEC; also called Duokine OX40L-4-1BBL; not shown: N-terminal FLAG tag

Reference: patent US20190276511A1 (BIONTECH RNA PHARMACEUTICALS, published 2019)
